Laboratory results taken from US20120214748A1, “NOVEL PEPTIDES, PROCESS FOR PREPARATION THEREOF, AND USE THEREOF” (priority 2009, published 2012).

B1: wild-type SFTI (Sun Flower Trypsin Inhibitor) (peptide)
peptide: GRCTKSIPPICFPD
modifications: not checked
B2: M2-6E (peptide)
peptide: GYCSRSYPPVCIPD
modifications: not checked

Columns and labels:
Thrombin = assay: enzyme inhibition, Z-Gly-Pro-Arg-pNa substrate, tight-binding fit
[1] = molecular target: MASP-2 CCP1-CCP2-SP (human), O00187; assay: enzyme inhibition, Z-L-Lys-SBzl substrate, tight-binding fit
Sequence of MASP-2 CCP1-CCP2-SP (human), O00187 (O00187 298-686 limits assumed): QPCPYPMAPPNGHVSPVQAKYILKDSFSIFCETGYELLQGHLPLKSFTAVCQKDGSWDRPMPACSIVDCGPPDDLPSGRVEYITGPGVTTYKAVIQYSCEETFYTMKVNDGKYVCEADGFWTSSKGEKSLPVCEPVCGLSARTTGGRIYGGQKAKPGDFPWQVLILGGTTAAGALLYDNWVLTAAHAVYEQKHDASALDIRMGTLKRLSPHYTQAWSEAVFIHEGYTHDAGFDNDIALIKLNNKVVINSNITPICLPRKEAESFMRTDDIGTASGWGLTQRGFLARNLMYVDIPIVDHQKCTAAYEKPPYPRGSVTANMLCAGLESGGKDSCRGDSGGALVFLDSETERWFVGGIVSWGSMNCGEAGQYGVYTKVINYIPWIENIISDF

Trypsin = assay: as above
Sequence of Trypsin (P00760 24-246): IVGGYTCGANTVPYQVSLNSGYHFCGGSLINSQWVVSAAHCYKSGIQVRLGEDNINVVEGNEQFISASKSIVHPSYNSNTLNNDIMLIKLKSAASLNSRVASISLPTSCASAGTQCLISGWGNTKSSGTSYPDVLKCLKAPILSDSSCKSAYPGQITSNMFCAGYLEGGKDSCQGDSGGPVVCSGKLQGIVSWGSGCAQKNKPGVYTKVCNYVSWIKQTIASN

| Binder | Ki (Thrombin) [µM] | Ki [1] [nM] | Ki (Trypsin) [nM] |
| --- | --- | --- | --- |
| B1 | 140 |  |  |
| B2 | 550 | 180 | 1000 |
